This series concerns the molecule itself. Kind of series: cryo-EM structure; single-particle cryo-EM of detergent-solubilised qNOR-BRIL (50 mM tris, 150 mM NaCl, 0.05% DTM; wild type pH 7.0 at 3 mg/ml, Val495Ala pH 7.5 at 5 mg/ml), C2 symmetry imposed.

From article PMC6713497, “Dimeric structures of quinol-dependent nitric oxide reductases (qNORs) revealed by cryo–electron microscopy” (Science Advances, 2019) come the findings set out here.

What is called stoichiometry N is the number of molecules, sites or subunits per partner or assembly.

B1: AxqNOR-BRIL (quinol-dependent nitric oxide reductase from Alcaligenes xylosoxidans fused with apocytochrome b562) (enzyme)
chain: not shown
Consider B1, for which the “stoichiometry N” value was 2.
